Measured values from article PMC10515849.

Molecular target: long form of human LepR (LepRb), full length, on HEK293T cells (human) (UniProt P48357)
Assay: flow cytometry on cells

UniProt P48357, sequence (P48357 22-1165): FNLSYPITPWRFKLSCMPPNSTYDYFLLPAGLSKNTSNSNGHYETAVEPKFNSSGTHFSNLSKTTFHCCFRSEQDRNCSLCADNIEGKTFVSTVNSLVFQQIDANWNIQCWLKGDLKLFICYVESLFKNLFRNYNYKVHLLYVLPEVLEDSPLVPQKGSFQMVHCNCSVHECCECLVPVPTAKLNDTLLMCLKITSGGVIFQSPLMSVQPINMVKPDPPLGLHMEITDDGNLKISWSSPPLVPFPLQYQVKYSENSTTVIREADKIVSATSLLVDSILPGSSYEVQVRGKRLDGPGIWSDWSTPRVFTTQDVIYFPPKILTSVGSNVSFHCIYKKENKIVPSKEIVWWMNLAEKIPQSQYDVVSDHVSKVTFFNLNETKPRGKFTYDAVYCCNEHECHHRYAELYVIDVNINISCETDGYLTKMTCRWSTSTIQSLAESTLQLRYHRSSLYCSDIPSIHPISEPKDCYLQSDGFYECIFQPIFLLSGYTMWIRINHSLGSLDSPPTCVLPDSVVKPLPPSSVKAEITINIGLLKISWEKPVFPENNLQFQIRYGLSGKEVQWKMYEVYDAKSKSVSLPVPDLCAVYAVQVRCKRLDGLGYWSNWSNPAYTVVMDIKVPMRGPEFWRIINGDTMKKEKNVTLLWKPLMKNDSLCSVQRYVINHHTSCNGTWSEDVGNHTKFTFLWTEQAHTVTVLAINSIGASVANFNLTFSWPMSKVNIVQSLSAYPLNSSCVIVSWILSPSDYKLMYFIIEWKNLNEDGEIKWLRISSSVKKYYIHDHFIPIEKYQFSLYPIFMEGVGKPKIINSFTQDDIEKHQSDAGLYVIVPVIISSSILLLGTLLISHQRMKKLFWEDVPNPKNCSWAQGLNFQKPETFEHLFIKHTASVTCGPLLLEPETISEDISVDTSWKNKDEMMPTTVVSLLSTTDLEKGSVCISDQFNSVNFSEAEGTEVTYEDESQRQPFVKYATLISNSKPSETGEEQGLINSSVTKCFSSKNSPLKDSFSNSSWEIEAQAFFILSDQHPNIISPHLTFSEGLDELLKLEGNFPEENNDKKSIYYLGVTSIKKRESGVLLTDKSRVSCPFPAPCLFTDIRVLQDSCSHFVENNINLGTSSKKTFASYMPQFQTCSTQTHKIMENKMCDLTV

Q: How did the Kd turn out when FITC-labeled rASRA (natural protein) was run?
A: The Kd was 2.2 nM.
